B1: m-SWI6 mutant probe (pSwi6-M-Biotin) (dsDNA)
DNA 1: GAAAGTACCAGGGATAAATTTATTATATAGTCTCGGTGCCATG
DNA 2: CATGGCACCGAGACTATATAATAAATTTATCCCTGGTACTTTC
B2: SWI6 promoter GBE probe (pSwi6-Biotin) (dsDNA)
DNA 1: GAAAGTACCAGGGCACCTGGTGAGTCTCAGTCTCGGTGCCATG
DNA 2: CATGGCACCGAGACTGAGACTCACCAGGTGCCCTGGTACTTTC

Legend:
[1] = target: T1, GCN4 (Ganoderma lucidum, UniProt A0A6H0YJ80 1-300); assay: SPR; settings: SPR: 10 mM HEPES pH 7.4, 150 mM NaCl, 3 mM EDTA, 0.005% P20, 25 C, SA chip, GCN4 7.81-125 nM; EMSA: Thermo 89880 kit, conditions not stated; in M (unit assumed)
[2] = target: T1, GCN4; assay: EMSA; SPR: 10 mM HEPES pH 7.4, 150 mM NaCl, 3 mM EDTA, 0.005% P20, 25 C, SA chip, GCN4 7.81-125 nM; EMSA: Thermo 89880 kit, conditions not stated; settings: protein: recombinant; tags: His; chain copies: 2; blunt

T1 sequence (A0A6H0YJ80 entry or part of it): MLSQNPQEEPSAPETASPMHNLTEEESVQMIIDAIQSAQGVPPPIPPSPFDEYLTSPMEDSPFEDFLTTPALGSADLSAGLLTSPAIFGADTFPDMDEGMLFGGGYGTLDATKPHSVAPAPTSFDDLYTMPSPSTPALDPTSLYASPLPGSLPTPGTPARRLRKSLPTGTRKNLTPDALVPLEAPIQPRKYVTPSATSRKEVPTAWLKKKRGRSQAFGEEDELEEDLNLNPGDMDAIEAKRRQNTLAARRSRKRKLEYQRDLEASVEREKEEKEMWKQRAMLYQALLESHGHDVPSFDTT

Molecule | Kd (M (unit not given)) [1] | binding result [2]
SWI6 (GBE) SPR probe | 8.79e-08 | 
B1 |  | no binding
B2 |  | binds
